Measurements taken from patent publication US20170037136A1 (Janssen / Centocor, published 2017).

T1: human CD154 endogenously expressed on D1.1 Jurkat cells (human, UniProt P29965 1-261)
T1 sequence: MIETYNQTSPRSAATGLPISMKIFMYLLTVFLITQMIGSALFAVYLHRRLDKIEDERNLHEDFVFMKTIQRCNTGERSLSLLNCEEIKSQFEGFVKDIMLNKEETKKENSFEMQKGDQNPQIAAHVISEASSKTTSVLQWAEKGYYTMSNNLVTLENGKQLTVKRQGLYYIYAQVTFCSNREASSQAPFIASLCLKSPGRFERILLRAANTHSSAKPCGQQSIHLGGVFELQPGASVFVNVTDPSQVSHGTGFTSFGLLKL

T2: shCD154-his (soluble human CD154, His6 fusion) (human, UniProt P29965 113-261)
T2 construct: predominantly trimer
T2 sequence: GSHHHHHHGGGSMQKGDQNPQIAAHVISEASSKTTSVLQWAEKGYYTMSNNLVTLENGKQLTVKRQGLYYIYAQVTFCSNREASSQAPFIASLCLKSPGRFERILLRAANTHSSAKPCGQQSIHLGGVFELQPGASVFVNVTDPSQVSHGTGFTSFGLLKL


Key:
[1] = biological target: T3, shCD154-ILZ (soluble human CD154, leucine zipper fusion) (human); test: cell-based or functional assay
[2] = biological target: T1, human CD154 endogenously expressed on …; test: cell-based or functional assay
[3] = biological target: T2, shCD154-his (soluble human CD154, His6 …); test: SPR (ProteOn XPR36), antibody captured via anti-human IgG Fc, shCD154-his analyte, 25 C, two-states binding model
Protocol: (§1) Affinity measurements using Surface Plasmon Resonance (SPR) were performed using a ProteOn XPR36 system (BioRad). […] Approximately 4700 RU (response units) of test antibodies were immobilized. The kinetic experiments were performed at 25° C. in running buffer (DPBS+0.03% polysorbate P20+100 μg/ml BSA). […] The association phase was monitored for 3 minutes at 50 μL/min followed by 15 minutes of buffer flow (dissociation phase). The chip surface was regenerated with two 18 second pulses of 100 mM H₃PO₄ (Sigma, Cat#7961) at 100 μL/min.
(§2) Affinity measurements were done using ProteOn as described in Example 1.

[4] = biological target: T2, shCD154-his (soluble human CD154, His6 …); test: cell-based or functional assay
[5] = biological target: T2, shCD154-his (soluble human CD154, His6 …); test: SPR (ProteOn XPR36), antibody captured via anti-human IgG Fc, shCD154-his analyte, 25 C, 1:1 Langmuir model
Protocol: as §1
(§3) The collected data were processed using ProteOn Manager software. First, the data was corrected for background using inter-spots. Then, double reference subtraction of the data was performed by using the buffer injection for analyte injections. The kinetic analysis of the data was performed using a Langmuir 1:1 binding model.
as §2

[6] = biological target: T2, shCD154-his (soluble human CD154, His6 …); test: SPR (ProteOn XPR36) as in Example 1, human CD154; mean ± SD, n = 4
Protocol: as §1, §3

[7] = biological target: T2, shCD154-his (soluble human CD154, His6 …); test: SPR (ProteOn XPR36), protocols of Example 1; analyte not given
Protocol: as §1, §3

[8] = biological target: T3, shCD154-ILZ (soluble human CD154, …); test: cell-based or functional assay; remark: listed apart in the source

Binder | NF-κB SEAP reporter gene assay; IC50 (nM); shCD154-ILZ [1] [nM] | NF-κB SEAP reporter gene assay; IC50 (nM); D1.1 Jurkat [2] [nM] | Kd [5] [nM] | koff [5] [s⁻¹] | kon [5] [M⁻¹ s⁻¹] | further results
C4LB94 (antibody, V domains shown, IgG2sigma, kappa; also called VH C4LH99; VL PH9L2) VH: QVQLVQSGAEVKKPGSSVKVSCKASGGTFSSYAISWVRQAPGQGLEWMGGISPYFGNTNYAQKFQGRVTITADESTSTAYMELSSLRSEDTAVYYCARDTGWVGAFYLDYWGQGTLVTVSS VL: not shown | 4.37 | 0.13 |  |  |  | Kd [3]: 2.09 nM; koff [3]: 0.00329 s⁻¹; kon [3]: 1.58e+06 M⁻¹ s⁻¹
C4LB89 (antibody, human IgG2, kappa, IgG2sigma/kappa; also called VH C4LH165; VL C4LL49) heavy: QVQLVQSGAEVKKPGSSVKVSCKASGGTFSSYGISWVRQAPGQGLEWMGWISPIFGNTNYAQKFQGRVTITADESTSTAYMELSSLRSEDTAVYYCARSRYYGDLDYWGQGTLVTVSSASTKGPSVFPLAPCSRSTSESTAALGCLVKDYFPEPVTVSWNSGALTSGVHTFPAVLQSSGLYSLSSVVTVPSSNFGTQTYTCNVDHKPSNTKVDKTVERKCCVECPPCPAPPAAASSVFLFPPKPKDTLMISRTPEVTCVVVDVSAEDPEVQFNWYVDGVEVHNAKTKPREEQFNSTFRVVSVLTVLHQDWLNGKEYKCKVSNKGLPSSIEKTISKTKGQPREPQVYTLPPSREEMTKNQVSLTCLVKGFYPSDIAVEWESNGQPENNYKTTPPMLDSDGSFFLYSKLTVDKSRWQQGNVFSCSVMHEALHNHYTQKSLSLSPGK light: not shown |  |  | 0.235 | 0.00038 | 1.61e+06 | NF-κB SEAP reporter gene assay; IC50 [4]: 6.22 nM
C4LB237 (antibody, V domains shown, C4LB89 variable regions cloned as wild-type IgG1/kappa; also called C4LBB237) VH: QVQLVQSGAEVKKPGSSVKVSCKASGGTFSSYGISWVRQAPGQGLEWMGWISPIFGNTNYAQKFQGRVTITADESTSTAYMELSSLRSEDTAVYYCARSRYYGDLDYWGQGTLVTVSS VL: DIQMTQSPSSLSASVGDRVTITCRASQSISSYLNWYQQKPGKAPKLLIYYANSLQSGVPSRFSGSGSGTDFTLTISSLQPEDFATYYCQQSDSIPWTFGQGTKVEIK |  |  |  |  |  | NF-κB SEAP reporter gene assay; IC50 [4]: 2.56 nM; Kd [6]: 0.0236 nM; koff [6]: 6.05e-05 s⁻¹; kon [6]: 2.59e+06 M⁻¹ s⁻¹
C4LB83 (antibody, V domains shown, IgG2sigma) VH: QVQLVQSGAEVKKPGSSVKVSCKASGGTFSSYAISWVRQAPGQGLEWMGWIIPIFGNTNYAQKFQGRVTITADESTSTAYMELSSLRSEDTAVYYCAREKDFRGYTKLDYWGQGTLVTVSS VL: DIQMTQSPSSLSASVGDRVTITCRASQSINNWLNWYQQKPGKAPKLLIYAASSLQSGVPSRFSGSGSGTDFTLTISSLQPEDFATYYCQQSFSFPYTFGQGTKVEIK |  |  |  |  |  | Kd [7]: 2.23 nM; koff [7]: 0.0047 s⁻¹; kon [7]: 2.1e+06 M⁻¹ s⁻¹
C4LB119 (antibody, V domains shown, IgG2sigma) VH: QVQLVQSGAEVKKPGSSVKVSCKASGGTFSSYYISWVRQAPGQGLEWMGAIDPYFGYANYAQKFQGRVTITADESTSTAYMELSSLRSEDTAVYYCARTGLNYGGFDYWGQGTLVTVSS VL: EIVLTQSPATLSLSPGERATLSCRASQSVSSYLAWYQQKPGQAPRLLIYDASNRATGIPARFSGSGSGTDFTLTISSLEPEDFAVYYCQQRSNWPLTFGQGTKVEIK |  |  |  |  |  | Kd [7]: 4.79 nM; koff [7]: 0.0088 s⁻¹; kon [7]: 1.84e+06 M⁻¹ s⁻¹
C4LB5 (antibody, V domains shown, Phage-derived; IgG2sigma effector silent mAb (V234A, G237A, P238S, H268A, V309L, A330S, P331S), kappa; also called VH C4LH12; VL C4LL8) VH: QVQLVQSGAEVKKPGSSVKVSCKASGGTFSSYAISWVRQAPGQGLEWMGGIIPIFGTANYAQKFQGRVTITADESTSTAYMELSSLRSEDTAVYYCARGASVWDGPAEVFDYWGQGTLVTVSS VL: not shown | 0.54 | 1.55 | 0.312 | 0.000178 | 570000 | B cell activation assay; IC50 (nM); shCD154-ILZ/cyno B cell [8]: 5.35 nM; B cell activation assay; IC50 (nM); shCD154-ILZ/human B cells [8]: 2.74 nM
C4LB189 (antibody, V domains shown, IgG2sigma effector silent mAb; lambda VL; also called VH C4LH240; VL C4LL116) VH: QVQLVQSGAEVKKPGASVKVSCKASGYTFAAYYIHWVRQAPGQGLEWMGRINPDSGGTDYAQRFQGRVTMTRDTSISTAYMELSRLRSDDTAVFYCARDWNYYDGSGYFGPGYYGLDVWGQGTTVTVSS VL: SYELTQPPSVSVSPGQTASVTCSGDKLGDKYVCWYQRKPGQSPVLVIYQDRKRPSGIPERFSGSNSGNTATLTISGTQAIDEADYYCQAWDSGTVVFGRGTKLTVL | 1.63 | 2.06 | 0.581 | 0.000206 | 355000 | 
C4LB191 (antibody, V domains shown, IgG2sigma effector silent mAb; lambda VL; also called VH C4LH242; VL IAPL39) VH: QVQLVQSGAEVKKPGASMKVSCKASGYTFTDYYIHWVRQAPGQGLEWVGRFNPNSGDTNGAQKFQGRVTMTRDTSISTAYMELTRLRSDDTAVYHCAREGELAGIFFDYWGQGTLVTVSS VL: SYELTQPPSVSVSPGQTASITCSGDKLGDKYVSWNHQKPGQSPVLVIYQDRKRPSGIPERFSGSNSGNTATLTISGTQAMDEADYYCQAWDSSTVVFGGGTKLTVL |  |  | 0.0313 | 0.000176 | 5.62e+06 | 
C4LB150 (antibody, V domains shown, IgG2sigma effector silent mAb; lambda VL (OmniRat antibodies were cloned as IgG2sigma/lambda); also called VH C4LH201; VL C4LL82) VH: QLQLQESGPGLVKPSETLSLTCTVSGGSISSYSFYWGWIRQPPGQGLEWIGSLYYSGSTYYNPSLKSRATMSVVTSKTQFSLNLNSVTAADTAVYYCARLQLGTTTDYFDHWGQGTLVTVSS VL: SYELTQPPSVSVSPGQTASITCSGDELGDKFACWYQQKPGQSPVLVIWQENKRPSGIPERFSGSNSGNTATLTISGTQAMDEADYYCQAWDSDTAVFGGGTKLTVL | 4.95 | 3.57 |  |  |  | Kd [3]: 2.72 nM; koff [3]: 0.00617 s⁻¹; kon [3]: 2.27e+06 M⁻¹ s⁻¹
C4LB199 (antibody, V domains shown, IgG2sigma effector silent mAb; lambda VL; also called VH C4LH250; VL C4LL125) VH: QVQLQESGPGLVKPSETLSLTCTVSGDSISSFIYYWGWIRQPPGKGLDWVGCIYSSGGTYYNPSLKSRVTISVDTSKNQFSLKLPSVTAADTAVYYCARLWLGTTTDYFDYWGQGTLVTVSS VL: SYELTQPPSVSVSPGQTVSITCSGDKLGDKFACWYQQKPGQSPVVVIYQDDKRPSGIPERFSGSTSGNTATLTISGTQAMDEADYYCQAWDSNTVVFGGGTKLTVL | 1.09 | 1.21 | 0.253 | 0.000404 | 1.6e+06 | 
